Data on four molecules can be found in PMC4955856 (Biochemistry, 2016).

Values joined by “and” are separate entries in the source; they are usually repeats but may differ in a detail not shown here. Equal values may be shown once. Read-outs that look alike come from different tables or passages of the source.

For series [1], the target named is human UDP-glucose dehydrogenase Y96Bpa (human) (UniProt O60701). Description: SEC.
Series [2] has as its target human UDP-glucose dehydrogenase T325D obligate dimeric mutant (human) (UniProt O60701). Briefly: SEC.
Series [3] addresses human UDP-glucose dehydrogenase Q458Bpa (human) (UniProt O60701). Briefly: SEC.
For series [4] the target is unchanged. Description: SEC. This is another data set of the same source.
Series [5] shares this target. Description: cross-linking.
The series “SEC” deals with the molecule itself. Briefly: SEC.

Molecule “human UDP-glucose dehydrogenase Y96Bpa (from UniProt O60701 1-494) (enzyme)” displayed a stoichiometry N in series [1] of 2.
In series [2], “human UDP-glucose dehydrogenase T325D obligate dimeric mutant (from UniProt O60701 1-494) (enzyme)” gave a stoichiometry N of 2.
Consider “human UDP-glucose dehydrogenase Q458Bpa (from UniProt O60701 1-494) (enzyme)”, for which the stoichiometry N in series [3] came out at 6. For the same molecule, in series [4], the stoichiometry N worked out at 6. In series [5], this molecule had a cross-linking efficiency (holoenzyme) greater than 60%; a cross-linking efficiency (with UDP-xylose alone) of 40%; a total crosslinking efficiency (with NAD+ and UDP-glucose) of 63%.

B1: human UDP-glucose dehydrogenase, wild type (enzyme, UniProt O60701 1-494, looked up)
chain: MFEIKKICCIGAGYVGGPTCSVIAHMCPEIRVTVVDVNESRINAWNSPTLPIYEPGLKEVVESCRGKNLFFSTNIDDAIKEADLVFISVNTPTKTYGMGKGRAADLKYIEACARRIVQNSNGYKIVTEKSTVPVRAAESIRRIFDANTKPNLNLQVLSNPEFLAEGTAIKDLKNPDRVLIGGDETPEGQRAVQALCAVYEHWVPREKILTTNTWSSELSKLAANAFLAQRISSINSISALCEATGADVEEVATAIGMDQRIGNKFLKASVGFGGSCFQKDVLNLVYLCEALNLPEVARYWQQVIDMNDYQRRRFASRIIDSLFNTVTDKKIAILGFAFKKDTGDTRESSSIYISKYLMDEGAHLHIYDPKVPREQIVVDLSHPGVSEDDQVSRLVTISKDPYEACDGAHAVVICTEWDMFKELDYERIHKKMLKPAFIFDGRRVLDGLHNELQTIGFQIETIGKKVSSKRIPYAPSGEIPKFSLQDPPNKKPKV
B1: the “stoichiometry N” value in the series “SEC” is 6 and 2.
